For the assay, the target named is translocated ALK of ALK-translocated NSCLC tumors (n = 6) (human (endogenous in NSCLC tumors)). Description: proximity ligation; Duolink PLA with mouse HER3 and rabbit ALK antibodies on FFPE sections of ALK-translocated NSCLC tumors (n = 6).

In the case of “human epidermal growth factor receptor 3 (from UniProt P21860 20-1342)”, the mean signal for PLA per cell (signals per cell) is 17.2.
